From patent US20230000771A1 (WISCONSIN ALUMNI RESEARCH FOUNDATION, published 2023) come the findings set out here.

Where no end group is shown, it is not given here.

What is called koff is a measure of how fast the partners let go of each other. Read a high koff as fast dissociation. Broadly, the Kd is a measure of binding affinity in units of concentration. What is called kon is the rate constant with which the complex forms. Read a high kon as faster complex formation.

In experiment [1] the target is T1, PD-L1 (SPR target) (UniProt Q9NZQ7 19-238, limits assumed).
T1 construct: also called PD-L1/CD274
T1 sequence (Q9NZQ7 19-238 limits assumed): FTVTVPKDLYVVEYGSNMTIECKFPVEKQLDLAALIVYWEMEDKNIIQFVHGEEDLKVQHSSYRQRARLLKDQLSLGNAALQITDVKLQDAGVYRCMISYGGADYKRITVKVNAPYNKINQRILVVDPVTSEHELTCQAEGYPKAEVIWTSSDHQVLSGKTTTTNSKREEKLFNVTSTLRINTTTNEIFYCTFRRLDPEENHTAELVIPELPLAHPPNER
As to the kind of experiment: SPR; drawn table under the sensorgrams, column Kd. (Surface plasmon resonance follows binding to a sensor surface in real time, without labels.)

In experiment [2] the target is T1, PD-L1 (SPR target). As to the kind of experiment: SPR; drawn table under the sensorgrams, column KD.
The target of experiment [3] is T1, PD-L1 (SPR target). Kind of experiment: SPR; drawn table under the sensorgrams, column Ka.
Experiment [4] concerns the target T1, PD-L1 (SPR target). As to the kind of experiment: SPR.

HVVWHRESPSGQTDTLAA (not fully specified (C-terminus), also called free pPD-1) [PD-L1-binding peptide (pPD-1), free peptide] gave a koff with PD-L1 (SPR target) [1] of 0.127 s⁻¹. The molecule further came in with a dissociation constant (Kd) with PD-L1 (SPR target) [2] of 119000 nM.

B1: aPD-L1 (full anti-PD-L1 antibody) (antibody, V domains shown)
VH: EVQLLESGGGLVQPGGSLSLSCAASGFSFSSGYDMCWVRQAPGKGLEWIACIAAGSAGITYDANWAKGRFTISRDNSKNTLYLQMNSLRAEDTAVYYCARSAFSFDYAMDLWGQGTLVTVSS
VL: DIQMTQSPSTLSASVGDRVTITCQASQSISSHLNWYQQKPGKAPKLLIYKASTLASGVPSRFSGSGSGTEFTLTISSLQPDDFATYYCQQGYSWGNVDNVFGGGTKVTVL
In the experiment with PD-L1 (SPR target) [3], B1 came in with an on-rate (kon) of 583000 M⁻¹ s⁻¹. The molecule further registered a koff in the experiment with PD-L1 (SPR target) [1] of 0.00122 s⁻¹. In addition, the Kd in the experiment with PD-L1 (SPR target) [2] was 2.09 nM.

B2: dendrimer-peptide conjugate G7-pPD1 (pPD-1 peptides conjugated to PAMAM dendrimer) (other)
peptide: HVVWHRESPSGQTDTLAA
modifications: not fully specified (C-terminus); also: conjugated to G7 PAMAM dendrimer, attachment site and number per dendrimer not given here
notes: Multivalent conjugate; Only the peptide part is a polypeptide; also called dendrimer-pPD-1; dendrimer-peptide conjugates
In the experiment with PD-L1 (SPR target) [3], B2 yielded a kon of 252000 M⁻¹ s⁻¹. For the same molecule, the koff with PD-L1 (SPR target) [1] was 0.000693 s⁻¹. Also, the “strength of KD relative to free peptide (pPD1)” value in the experiment with PD-L1 (SPR target) [4] was around 100000 fold. Besides, binding with PD-L1 (SPR target) [2] was characterised by a dissociation constant (Kd) of 2.75 nM.
